B1: p75^NTR receptor immobilized on the SPR sensor surface (receptor)
chain: KEACPTGLYTHSGECCKACNLGEGVAQPCGANQTVCEPCLDSVTFSDVVSATEPCKPCTECVGLQSMSAPCVEADDAVCRCAYGYYQDETTGRCEACRVCEAGSGLVFSCQDKQNTVCEECPDGTYSDEANHVDPCLPCTVCEDTERQLRECTRWADAECEEIPGRWITRSTPPEGSDSTAPSTQEPEAPPEQDLIASTVAGVVTTVMGSSQPVVTRGTTDN
B2: TrKA receptor immobilized on the SPR sensor surface (receptor)
chain: AAPCPDACCPHGSSGLRCTRDGALDSLHHLPGAENLTELYIENQQHLQHLELRDLRGLGELRNLTIVKSGLRFVAPDAFHFTPRLSRLNLSFNALESLSWKTVQGLSLQELVLSGNPLHCSCALRWLQRWEEEGLGGVPEQKLQCHGQGPLAHMPNASCGVPTLKVQVPNASVDVGDDVLLRCQVEGRGLEQAGWILTELEQSATVMKSGGLPSLGLTLANVTSDLNRKNVTCWAENDVGRAEVSVQVNVSFPASVQLHTAVEMHHWCIPFSVDGQPAPSLRWLFNGSVLNETSFIFTEFLEPAANETVRHGCLRLNQPTHVNNGNYTLLAANPFGQASASIMAAFMDNPFEFNPEDPIPVSFSPVDTNSTSGDPVEKKDETPFGVSVAVG

Key:
[1] = biological target: p75^NTR receptor immobilized on the SPR sensor surface; assay: SPR, receptor immobilized, steady-state 1:1 fit (KDeq)
[2] = biological target: TrKA receptor immobilized on the SPR sensor surface; assay: as above
[3] = biological target: T1, rhNGF-1: recombinant human NGF from R&D Systems Inc (product code: 256-GF/CF), manufactured in a mouse … (human, UniProt P01138 122-241; P01138 122-240; P01138 122-239; P01138 122-238); assay: as above
T1 construct: A commercial MIXTURE of isoforms, not a complex of four chains: the four entries are alternative forms
T1 sequence (P01138 122-241 limits assumed, chain 1 of 4): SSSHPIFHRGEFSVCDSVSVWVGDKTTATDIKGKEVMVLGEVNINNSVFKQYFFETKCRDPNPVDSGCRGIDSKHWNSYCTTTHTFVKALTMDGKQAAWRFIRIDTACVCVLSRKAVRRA
T1 sequence (P01138 122-240 limits assumed, chain 2 of 4): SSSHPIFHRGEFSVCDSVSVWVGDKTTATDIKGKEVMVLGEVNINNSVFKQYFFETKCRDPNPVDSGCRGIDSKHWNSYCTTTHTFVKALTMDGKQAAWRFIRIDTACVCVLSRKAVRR
T1 sequence (P01138 122-239 limits assumed, chain 3 of 4): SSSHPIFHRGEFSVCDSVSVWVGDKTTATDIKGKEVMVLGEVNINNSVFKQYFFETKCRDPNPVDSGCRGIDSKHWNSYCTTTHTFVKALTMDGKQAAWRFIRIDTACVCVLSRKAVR
T1 sequence (P01138 122-238 limits assumed, chain 4 of 4): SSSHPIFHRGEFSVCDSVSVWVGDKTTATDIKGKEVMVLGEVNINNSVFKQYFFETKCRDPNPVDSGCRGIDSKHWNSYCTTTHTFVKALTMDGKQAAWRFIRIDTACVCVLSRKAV

[4] = biological target: T2, Recombinant human NGF (rhNGF) having an aminoacid sequence of 118 aminoacids (rhNGF-118) (human, UniProt P01138 122-239); assay: as above
T2 construct: Made in E. coli from proNGF mutant SP174-101
T2 sequence (P01138 122-239 limits assumed): as the sequence (P01138 122-239 limits assumed, chain 3 of 4) above

[5] = biological target: T1, rhNGF-1: recombinant human NGF from R&D …; assay: SPR, receptor immobilized, kinetic fit (BIA evaluation)
[6] = biological target: T1, rhNGF-1: recombinant human NGF from R&D …; assay: SPR, receptor immobilized, kinetic Kd (Koff/Kon)
[7] = biological target: T2, Recombinant human NGF (rhNGF) having an …; assay: SPR, receptor immobilized, kinetic Kd (Koff/Kon)
[8] = biological target: T2, Recombinant human NGF (rhNGF) having an …; assay: SPR, receptor immobilized, kinetic fit (BIA evaluation)

| Molecule | Kd [1] [nM] | Kd [2] [nM] | Kd [3] [nM] | Kd [4] [nM] | koff [5] [s⁻¹] | kon [5] [M⁻¹ s⁻¹] | Kd [6] [nM] | Kd [7] [nM] | koff [8] [s⁻¹] | kon [8] [M⁻¹ s⁻¹] |
| --- | --- | --- | --- | --- | --- | --- | --- | --- | --- | --- |
| rhNGF2: recombinant human NGF from Active Bioscience (product code 1745.955), manufactured in CHO cells (from UniProt P01138 122-238) (ligand) | 15.7 | 3.85 | – | – | – | – | – | – | – | – |
| rhNGF3: recombinant human NGF from Sino Biological (product code: 11050-HNAC), manufactured in CHO cells (from UniProt P01138 122-238) (ligand) | 39.1 | 6 | – | – | – | – | – | – | – | – |
| B1 | – | – | 5.06 | 7.1 | 0.0111 | 8.3e+06 | 1.33 | 2.6 | – | – |
| B2 | – | – | 3.65 | 4.33 | 0.00061 | 8.3e+06 | 0.0792 | 0.38 | 0.00075 | 1.67e+06 |
